PMC8625556

System: GST:p33ΔTMD (Citrus tristeza virus (isolate T36))
Assay: EMSA

Question: Which Kd does the source give for LMT1 full length (1-780) here?
Answer: 122 nM
